Measurements: patent publication US20220119534A1 (DRAGONFLY THERAPEUTICS, published 2022)
Several values for one entry are separate records, joined by “and”; a condition that tells them apart may be missing. Identical values can stand only once.

Assays:
recombinant human FcRn = biological target: T1, recombinant human FcRn (human, UniProt P55899 24-297; P61769 21-119); assay: SPR 25C, pH 6.0, steady state; pH 6.0; third replicate
T1 construct: also called hFcRn

[1] = biological target: T2, recombinant human CLEC12A-His (human, UniProt Q5QGZ9 65-265); assay: SPR 37C, TriNKET captured on anti-hFc
T2 construct: also called hCLEC12A-His; hCLEC12A
T2 sequence: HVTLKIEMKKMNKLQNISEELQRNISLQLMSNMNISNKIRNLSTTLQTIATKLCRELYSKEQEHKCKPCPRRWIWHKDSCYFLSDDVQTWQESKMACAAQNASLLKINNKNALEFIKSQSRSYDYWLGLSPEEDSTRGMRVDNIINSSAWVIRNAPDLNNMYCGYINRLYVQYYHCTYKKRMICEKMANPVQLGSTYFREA
Experimental: Briefly, human Fc specific antibodies were covalently immobilized at a density of about 8000-10000 resonance units (RU) on carboxy methyl dextran matrix of a CM5 biosensor chip to create an anti-hFc IgG chip. […] Association was monitored for 300 seconds, and dissociation was monitored for 900 seconds. Surfaces were regenerated between cycles with three pulses of 10 mM glycine-HCl (pH 1.7) injected for 20 seconds at 100 μL/min.

- Kd (recombinant human FcRn): 1500 nM
- Kd [1]: 0.58 nM and 0.59 nM and 0.57 nM and 0.6 nM
- koff [1]: 0.000494 s⁻¹ and 0.000489 s⁻¹ and 0.000499 s⁻¹
- kon [1]: 854000 M⁻¹ s⁻¹ and 833000 M⁻¹ s⁻¹ and 863000 M⁻¹ s⁻¹ and 826000 M⁻¹ s⁻¹
B1: F3'-1602 TriNKET (other)
chain: QLQLQESGPGLVKPSETLSLTCTVSGFSLTNYGLHWIRQPPGKCLEWIGVIWSGGKTDYNPSLKSRVTISKDTSKNQFSLKLSSVQAADTAVYYCAKYDYDDSLDYWGQGTLVTVSSGGGGSGGGGSGGGGSGGGGSDIQMTQSPSSLSASVGDRVTITCHASQNINFWLSWYQQKPGKAPKLLIYEASNLHTGVPSRFSGSGSGTRFTLTISSLQPEDIATYYCQQSHSYPLTFGCGTKLEIKGSDKTHTCPPCPAPELLGGPSVFLFPPKPKDTLMISRTPEVTCVVVDVSHEDPEVKFNWYVDGVEVHNAKTKPREEQYNSTYRVVSVLTVLHQDWLNGKEYKCKVSNKALPAPIEKTISKAKGQPREPRVYTLPPCRDELTKNQVSLTCLVKGFYPSDIAVEWESNGQPENNYKTTPPVLVSDGSFTLYSKLTVDKSRWQQGNVFSCSVMHEALHNHYTQKSLSLSPG
heavy: EVQLVESGGGLVKPGGSLRLSCAASGFTFSSYSMNWVRQAPGKGLEWVSSISSSSSYIYYADSVKGRFTISRDNAKNSLYLQMNSLRAEDTAVYYCARGAPIGAAAGWFDPWGQGTLVTVSSASTKGPSVFPLAPSSKSTSGGTAALGCLVKDYFPEPVTVSWNSGALTSGVHTFPAVLQSSGLYSLSSVVTVPSSSLGTQTYICNVNHKPSNTKVDKKVEPKSCDKTHTCPPCPAPELLGGPSVFLFPPKPKDTLMISRTPEVTCVVVDVSHEDPEVKFNWYVDGVEVHNAKTKPREEQYNSTYRVVSVLTVLHQDWLNGKEYKCKVSNKALPAPIEKTISKAKGQPREPQVCTLPPSRDELTENQVSLTCLVKGFYPSDIAVEWESNGQPENNYKTTPPVLDSDGSFFLYSWLTVDKSRWQQGNVFSCSVMHEALHNHYTQKSLSLSPG
light: DIQMTQSPSSVSASVGDRVTITCRASQGISSWLAWYQQKPGKAPKLLIYAASSLQSGVPSRFSGSGSGTDFTLTISSLQPEDFATYYCQQGVSFPRTFGGGTKVEIKRTVAAPSVFIFPPSDEQLKSGTASVVCLLNNFYPREAKVQWKVDNALQSGNSQESVTEQDSKDSTYSLSSTLTLSKADYEKHKVYACEVTHQGLSSPVTKSFNRGEC
notes: CLEC12A scFv-Fc, NKG2D A49MI Fab-Fc, human IgG1 Fc; also called AB0237
